Patent publication US20240199740A1 (Ablynx, published 2024)

Columns and labels:
[1] = biological target: T1, human CD123 (human, UniProt P26951 19-378); experiment: cell-based or functional assay
[2] = biological target: T1, human CD123; experiment: cell-based or functional assay; remark: listed apart in the source
[3] = biological target: T2, human CD123 expressed on cells (human, UniProt P26951 19-378); experiment: flow cytometry competition, CHO Flp-In huCD123 cells, competitor A0110056A10-Alexa647 (0.9 nM)
T2 construct: the cell line is named under assay; also called huCD123; IL-3Rα

[4] = biological target: T3, cynomolgus CD123 expressed on HEK Flp-In cells (cynomolgus); experiment: flow cytometry competition, HEK Flp-In cyCD123 cells, competitor A0110056A10-Alexa647 (0.9 nM)
T3 construct: EHH61867.1; also called cyCD123; cyno CD123
T3 chain: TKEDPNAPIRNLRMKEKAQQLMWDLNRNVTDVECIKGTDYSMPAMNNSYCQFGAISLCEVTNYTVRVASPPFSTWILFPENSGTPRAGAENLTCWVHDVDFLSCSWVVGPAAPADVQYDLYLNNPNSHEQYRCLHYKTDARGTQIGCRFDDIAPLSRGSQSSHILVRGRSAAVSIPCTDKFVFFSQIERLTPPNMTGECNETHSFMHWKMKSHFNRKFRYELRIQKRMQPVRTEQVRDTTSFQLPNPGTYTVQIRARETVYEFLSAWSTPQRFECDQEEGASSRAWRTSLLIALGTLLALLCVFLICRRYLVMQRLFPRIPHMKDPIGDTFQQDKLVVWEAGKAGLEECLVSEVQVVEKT

[5] = biological target: cynomolgus TCR/CD3 expressed on cells (cynomolgus); experiment: cell-based or functional assay
[6] = biological target: cynomolgus TCR/CD3 expressed on cells (cynomolgus); experiment: cell-based or functional assay; remark: listed apart in the source
[7] = biological target: T2, human CD123 expressed on cells; experiment: cell-based or functional assay
[8] = biological target: T2, human CD123 expressed on cells; experiment: cell-based or functional assay; remark: listed apart in the source
[9] = biological target: T2, human CD123 expressed on cells; experiment: flow cytometry competition, MOLM-13 cells, competitor A0110056A10-Alexa647 (0.4 nM)
[10] = biological target: T2, human CD123 expressed on cells; experiment: cell-based or functional assay; remark: listed apart in the source
[11] = biological target: T4, cynomolgus TCR/CD3 expressed on cells (cynomolgus); experiment: flow cytometry competition, HSC-F cells, competitor T017000099 (500 nM)
T4 construct: whole, on cells; Native complex with CD3 chains; the cell type is named under assay or readout; also called cyno TCR/CD3; CD3/TCR expressed on HSC-F

[12] = biological target: T2, human CD123 expressed on cells; experiment: cell-based or functional assay; remark: listed apart in the source
[13] = biological target: T5, recombinant human CD123 protein (R&D Systems, 301-R3/CF) (human, UniProt P26951 19-305); experiment: SPR (ProteOn XPR36), CD123 immobilized
T5 construct: Bought recombinant His-tagged extracellular domain of human CD123; also called recombinant CD123; in house biotinylated-CD123 recombinant protein; not shown: His tag of the bought protein
T5 sequence: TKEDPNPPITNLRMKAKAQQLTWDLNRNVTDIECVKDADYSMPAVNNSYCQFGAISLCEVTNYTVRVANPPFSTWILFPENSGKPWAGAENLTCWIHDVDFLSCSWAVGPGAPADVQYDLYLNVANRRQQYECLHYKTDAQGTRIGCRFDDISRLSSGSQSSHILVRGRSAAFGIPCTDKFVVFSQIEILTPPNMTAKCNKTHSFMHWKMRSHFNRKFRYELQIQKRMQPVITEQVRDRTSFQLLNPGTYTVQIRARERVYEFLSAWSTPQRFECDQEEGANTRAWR

| Binder | IC50 [3] | IC50 [4] | % lysis, redirected cyno T cell mediated killing of MOLM-13 cells, flow cytometry, E:T 10:1 [5] | EC50 (M), redirected cyno T cell mediated killing of MOLM-13 cells, flow cytometry, E:T 10:1 [5] | % lysis, redirected cyno T cell mediated killing of KG1a cells, flow cytometry [6] | EC50 (M), redirected cyno T cell mediated killing of KG1a cells, flow cytometry [6] | EC50 (M), human IL-6 secretion during human T cell mediated killing of CD123 transfected adherent target cells [7] | % lysis, redirected human T cell mediated killing of MOLM-13 cells, flow cytometry, E:T 10:1 [8] | EC50 (M), redirected human T cell mediated killing of MOLM-13 cells, flow cytometry, E:T 10:1 [8] | IC50 [9] | % lysis, redirected human T cell mediated killing of KG1a cells, flow cytometry, E:T 10:1 [10] | EC50 (M), redirected human T cell mediated killing of KG1a cells, flow cytometry, E:T 10:1 [10] | IC50 [11] | EC50 (M), IFN-γ secretion by human T cells during killing of CD123 transfected adherent target cells [12] | also measured |
| --- | --- | --- | --- | --- | --- | --- | --- | --- | --- | --- | --- | --- | --- | --- | --- |
| T017000138 (bispecific antibody) DVQLVESGGGLVQPGGSLRLSCVASGDVHKINFLGWYRQAPGKEREKVAHISIGDQTDYADSAKGRFTISRDESKNMVYLQMNSLKPEDTAVYFCRAFSRIYPYDYWGQGTLVTVSSGGGGSGGGGSGGGGSGGGGSGGGGSGGGGSGGGGSEVQLVESGGGLVQAGGSLRLSCAASGITSKINDMGWYRQTPGNYREWVASITATGTTNYRDSVKGRFTISRDNAKSTVYLQMNSLKPEDTTVYYCNTFPPISNFWGQGTLVTVSSGGGGSGGGGSGGGGSGGGGSGGGGSGGGGSGGGGSEVQLVESGGGLVQAGGPLRLSCAASGRTFSSYVMGWFRQAPGKEREFVAAIYWSNGKTQYTDSVKGRFTISGDNAKNTVYLQMNSLNPEDTAVYYCVADKDETGFRTLPIAYDYWGQGTLVTVSSA | – | – | – | – | – | – | – | – | – | – | – | – | – | – | % lysis, redirected cynomolgus T cell mediated killing of KG1a cells, flow cytometry, E:T 10:1 [1]: 21%; % lysis, redirected human T cell mediated killing of KG1a cells, flow cytometry, E:T 10:1 [1]: 64%; EC50 (M), redirected cynomolgus T cell mediated killing of KG1a cells, flow cytometry, E:T 10:1 [1]: 2.8e-11 M; EC50 (M), redirected human T cell mediated killing of KG1a cells, flow cytometry, E:T 10:1 [1]: 1.6e-10 M; EC50 (M), redirected cynomolgus T cell mediated killing of MOLM-13 cells, flow cytometry, E:T 10:1 [2]: 1.5e-10 M; EC50 (M), redirected human T cell mediated killing of MOLM-13 cells, flow cytometry, E:T 10:1 [2]: 1.1e-10 M |
| T017000138 (bispecific antibody, Multispecific Nanobody polypeptide expressed in Pichia) DVQLVESGGGLVQPGGSLRLSCVASGDVHKINFLGWYRQAPGKEREKVAHISIGDQTDYADSAKGRFTISRDESKNMVYLQMNSLKPEDTAVYFCRAFSRIYPYDYWGQGTLVTVSSGGGGSGGGGSGGGGSGGGGSGGGGSGGGGSGGGGSEVQLVESGGGLVQAGGSLRLSCAASGITSKINDMGWYRQTPGNYREWVASITATGTTNYRDSVKGRFTISRDNAKSTVYLQMNSLKPEDTTVYYCNTFPPISNFWGQGTLVTVSSGGGGSGGGGSGGGGSGGGGSGGGGSGGGGSGGGGSEVQLVESGGGLVQAGGPLRLSCAASGRTFSSYVMGWFRQAPGKEREFVAAIYWSNGKTQYTDSVKGRFTISGDNAKNTVYLQMNSLNPEDTAVYYCVADKDETGFRTLPIAYDYWGQGTLVTVSSA | 3600 pM | 12000 pM | 47% | 1.7e-11 M | 38% | 8.8e-11 M | 3.8e-11 M | 22% | 2.3e-11 M | 3500 pM | 24% | 2.8e-10 M | 440000 pM | 4e-10 M | EC50 (M), IFN-γ secretion by cynomolgus T cells during killing of CD123 transfected adherent target cells [12]: 8.7e-10 M |
| T017000135 (bispecific antibody) DVQLVESGGGLVQAGGPLRLSCAASGRTFSSYVMGWFRQAPGKEREFVAAIYWSNGKTQYTDSVKGRFTISGDNAKNTVYLQMNSLNPEDTAVYYCVADKDETGFRTLPIAYDYWGQGTLVTVSSGGGGSGGGGSGGGGSGGGGSGGGGSGGGGSGGGGSEVQLVESGGGLVQPGGSLRLSCVASGDVHKINFLGWYRQAPGKEREKVAHISIGDQTDYADSAKGRFTISRDESKNMVYLQMNSLKPEDTAVYFCRAFSRIYPYDYWGQGTLVTVSSGGGGSGGGGSGGGGSGGGGSGGGGSGGGGSGGGGSEVQLVESGGGLVQAGGSLRLSCAASGITSKINDMGWYRQTPGNYREWVASITATGTTNYRDSVKGRFTISRDNAKSTVYLQMNSLKPEDTTVYYCNTFPPISNFWGQGTLVTVSSA | – | – | – | – | – | – | 5.9e-10 M | 33% | 1.1e-11 M | – | 18% | 5.1e-11 M | – | 2e-09 M | – |
| T017000129 (bispecific antibody, Control: anti-TCR Nanobody linked to the irrelevant anti-RSV Nanobody; also called irrelevant multivalent polypeptide T017000129) DVQLVESGGGLVQPGGSLRLSCVASGDVHKINFLGWYRQAPGKEREKVAHISIGDQTDYADSAKGRFTISRDESKNMVYLQMNSLKPEDTAVYFCRAFSRIYPYDYWGQGTLVTVSSGGGGSGGGGSGGGGSGGGGSGGGGSGGGGSGGGGSEVQLVESGGGLVQAGDSLRLSCAASGRTFSSYAMGWFRQAPGKEREFVAAISWSDGSTYYADSVKGRFTISRDNAKNTVYLQMNSLKPEDTAVYYCAADLTSTNPGSYIYIWAYDYWGQGTLVTVSSA | – | – | – | – | – | – | – | – | – | – | – | – | 520000 pM | – | – |
| T017000116 (bispecific antibody, Multispecific Nanobody polypeptide expressed in Pichia; also called A0110056A10-35GS-A0110055F03-35GS-T0170056G05-FLAG3-HIS6; not shown: C-terminal FLAG3-HIS6 tag) EVQLVESGGGLVQAGGSLRLSCAASGITSKINDMGWYRQTPGNYREWVASITATGTTNYRDSVKGRFTISRDNAKSTVYLQMNSLKPEDTTVYYCNTFPPISNFWGQGTLVTVSSGGGGSGGGGSGGGGSGGGGSGGGGSGGGGSGGGGSEVQLVESGGGLVQAGGPLRLSCAASGRTFSSYVMGWFRQAPGKEREFVAAIYWSNGKTQYTDSVKGRFTISGDNAKNTVYLQMNSLNPEDTAVYYCVADKDETGFRTLPIAYDYWGQGTLVTVSSGGGGSGGGGSGGGGSGGGGSGGGGSGGGGSGGGGSEVQLVESGGGLVQPGGSLRLSCVASGDVHKINFLGWYRQAPGKEREKVAHISIGDQTDYADSAKGRFTISRDESKNMVYLQMNSLKPEDTAVYFCRAFSRIYPYDYWGQGTLVTVSS | 1600 pM | 5600 pM | 15% | 3.9e-10 M | 14% | 3.7e-10 M | 9.6e-09 M | 17% | 2.2e-10 M | 1800 pM | 5% | 4.2e-10 M | – | 8.1e-09 M | Kd [13]: 880 pM |
